In the nanobody polyreactivity screen of Harvey et al. (2022):

Experiment: yeast display, Sf9 membrane polyspecificity reagent, FACS + sequencing; frameworks hold sequencing errors
In short: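 A synthetic nanobody library was expressed on Saccharomyces cerevisiae BJ5465 by galactose induction for 36–48 hours. The library was stained for 1 hour at 4 °C with 10% biotinylated, detergent-solubilized Sf9 membrane reagent and enriched with streptavidin microbeads before FACS. Low and high (top ~1%) gates were set on anti-HA fluorescence for expression and streptavidin fluorescence for reagent binding, and each polyreactivity label reflects the gate of origin.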

Row | Sequence | polyreactivity (PSR sort gate)
1 | QVQLVESGGGLVQAGGSLRLSCAASGFTFKRNAMGWYRQAPGKERELVASITSRGGSTDYADSVKGRFTISRDNAKNTVYLQMNSLKPEDTAVYYCAAVKYVVYYRSDYWGQGTQVTVSS | high polyreactivity
2 | EVQLVESGGGLVQAGGSLRISCAASGRIFNFYAMGWYRQAPGKEREFVASIRSNVGSTYYADSVKGRFTISRDNAKNTVYLQMNSLKPEDTAVYYCNARYYWYRGYDYWGQGTQVTVSS | high polyreactivity
3 | QVQLVESGGGLVQAGGSLRLSSAASGIIFSTYAMGWYRQAPGKERELVAAITSTGSTNYADSVKGRFTISRDNAKNTVYFQMNSLKPEDTAVYYCNAALNVSGHYPNDYWGQGTQVTVSS | low polyreactivity
4 | QVQLVESGGGLVQAGGSLRLSCAASGFIFPVNAMGWYRQAPGKERELVAGISRGGRTNYADSVKGRFTISRDNAKYSVYLQMNSLKPEDTAVYYCAAESYRAYKYDSWGQGTQVTVSS | low polyreactivity
5 | QDQLEESGGGLVQAGGSLRLSCAASGFTFHINSMGWDREAPGKEREMVAAITYSGGSTYYADSVKGRFTISRDPAKNTVYLQMNCLKPEHTAVDYCATTWYFVASWFVAIYVYWGQGTQVTVSS | low polyreactivity
6 | QVQLVESGGGLVQAGGSLRLSCAASGNIFYVYLMGWYRQAPGKERELVASITSGASTYYADSVKGRFTISRDNAKNTVYLQMNSLKPEDTAVYYCAAEALGVAGDYSTLYIYDYWGQGTQVTVSS | low polyreactivity
7 | QVQLVESGGGLVQAGGSLRLSCAASGYTFDINAMGWYRQAPGKERELVADISANDGSTSYADSVKGRFTISRDNAKNTVYLQMNSLKPEDTAVYYCAADYIWNPTWSVGYGDPGYDYCGQGTQVTVSS | low polyreactivity
8 | QVQLVESGGGLVQAGGSLRLSCAASGSIFSTYAMGWYRQAPGKERELVATIRRGGSTYYADSVKGRFTISRDNAKNTVYLQMNSLKPEDTAVYYCAATVSSYPYYRYYSWGQGTQVTVSS | high polyreactivity
9 | QVQLVESGGGVVQAGGSLRLSCDASGSTFDTYAMGWYRQAPGKERELVAGNTRRGGRTYYADSVKGRFTISRDNAKNTVYVQMNSLKPEDSAVYYCNALPQRPVGKRDHWGQGTQVTVSS | high polyreactivity
10 | QVQLVESGGGLVQAGGSLRLSCAASGSIFSSYAMGWYRQAPGKERELVAAISKSGVSTYYADSVKGRFTISRDNAKNTVYLQMNSLKPEDTAVYYCNAKGKYWHYDYWGQGTQVTVSS | high polyreactivity
11 | QVQLVESGGGLVHAGGSLRLSCAAYGSIFSKYVMGGSREAPGKERELVAAISWSGTRTYYADSVMGRFTISRDNAKNTVYLQMNSLKPEDTAVYYCAARRLYSGHQYDYWGQGTQVTVSS | high polyreactivity
12 | QFQLEESGRGLVQAGGSLRLSCAASGRIFRYYAMGWYRQAPGKERELVAGISWRGSSTYYADSVKGRFTISRDNAKNTVYLQMNSLKPEDTAVYYCAARKASGRFGYWGQGTQVTVSS | high polyreactivity
13 | QVQLVESGGGLVQAGGSLRLSCAASGRIFVINAMGWYRQAPGKERELVAAISQSGGSTYYADSVKGRFTISRDNAKNNVYLQMNSLKPEDTAVYYCNALSNVPYDYWGQGTQVTVSS | low polyreactivity
14 | QVQLVESGGGLVQAGGSLRLICAASGRTFRFYAKGWYRQAPGKERELVAAITSGGSTTYAYSVKGRFTISRDNAKNTVYLQMNSLKPEDTAVYYCNADRARAYDYWGQGTQVTVSS | high polyreactivity
15 | QVQLVESGGGLVQAGGSLRLSCAASGRIFNYYAMGWYRQAPGKERELVAGISGSGTSTYYADSVKGRFTISRDNAKNTVYLQMNSLKPEDTAVYYCAADVFRDDVWLDYWGQGTQVTVSS | low polyreactivity
16 | QVQLVESGGGLVHAGGCLRLSCAASGRTFAPYAMGWYRLAPGKERELVAAINSGDRTYYADSVKGRFTLSRDNAKNTVNLQINSLKPEDTSGYYCSSDALAGQYTWYKYDYWGQGSQVTVSS | low polyreactivity
17 | QVQLVESGGGLVKAGGSLRLSCAASGRTFLRNAMGWYRPAPGKERELVATITRGGSTYYADSVKGRFTISRDNAKNTVYLQMNSLKPEDTAVYYCAKDITGGFRRPDYGYWGQGTQVTVSS | low polyreactivity
